This series addresses T1, BMC04 (uncultured bacterium (metagenome)).
T1 chain: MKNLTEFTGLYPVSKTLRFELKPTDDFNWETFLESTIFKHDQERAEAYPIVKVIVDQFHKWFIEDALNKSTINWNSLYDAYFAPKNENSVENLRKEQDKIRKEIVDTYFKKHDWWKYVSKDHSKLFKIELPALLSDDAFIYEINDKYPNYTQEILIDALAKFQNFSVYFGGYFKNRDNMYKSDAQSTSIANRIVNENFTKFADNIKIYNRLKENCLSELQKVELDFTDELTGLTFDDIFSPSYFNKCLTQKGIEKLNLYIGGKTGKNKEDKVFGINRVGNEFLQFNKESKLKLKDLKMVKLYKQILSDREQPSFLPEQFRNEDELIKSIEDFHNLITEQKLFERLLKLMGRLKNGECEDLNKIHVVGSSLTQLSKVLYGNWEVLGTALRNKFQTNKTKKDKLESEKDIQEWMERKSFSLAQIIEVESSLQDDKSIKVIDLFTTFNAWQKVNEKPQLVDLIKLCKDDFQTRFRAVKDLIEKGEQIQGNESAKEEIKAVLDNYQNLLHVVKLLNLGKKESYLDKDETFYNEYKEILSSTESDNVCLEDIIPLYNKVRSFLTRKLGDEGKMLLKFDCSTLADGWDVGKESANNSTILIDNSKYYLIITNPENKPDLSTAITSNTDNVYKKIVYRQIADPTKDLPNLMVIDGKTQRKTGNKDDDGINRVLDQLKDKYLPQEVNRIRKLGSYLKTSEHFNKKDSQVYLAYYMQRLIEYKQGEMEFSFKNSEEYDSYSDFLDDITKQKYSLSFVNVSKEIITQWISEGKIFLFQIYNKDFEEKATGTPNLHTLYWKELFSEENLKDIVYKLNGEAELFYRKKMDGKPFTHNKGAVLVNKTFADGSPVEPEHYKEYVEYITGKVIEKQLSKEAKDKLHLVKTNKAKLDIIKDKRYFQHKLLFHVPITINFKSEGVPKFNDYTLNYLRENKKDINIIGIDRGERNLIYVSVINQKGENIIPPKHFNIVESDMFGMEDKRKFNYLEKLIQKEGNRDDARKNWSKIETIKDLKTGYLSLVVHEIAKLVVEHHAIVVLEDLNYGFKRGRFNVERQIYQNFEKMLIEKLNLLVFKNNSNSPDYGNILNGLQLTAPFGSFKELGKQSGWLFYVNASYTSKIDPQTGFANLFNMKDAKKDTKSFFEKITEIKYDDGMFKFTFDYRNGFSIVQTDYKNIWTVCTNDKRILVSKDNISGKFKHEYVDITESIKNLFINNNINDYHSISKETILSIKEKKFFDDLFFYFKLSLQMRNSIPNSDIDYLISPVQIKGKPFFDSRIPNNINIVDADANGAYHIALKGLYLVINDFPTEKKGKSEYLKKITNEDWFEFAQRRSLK
The series can be described thus: cell_activity; PAM not stated; E. coli depletion, 30 C. How it is done: Overnight grown pre-cultures were diluted into fresh 60 ml LB-Kanamycin (25 μg/ml) (Example 4) or LB-Kanamycin (25μg/ml)/Nourseothricin (50 μg/ml) medium (Example 5) to obtain an optical density at 600 nm (OD600) of 0.06. The inoculated medium was incubated at 30° C. on a horizontal shaker at 250 rpm until the culture reached an optical density at OD600 of 0.2. For induced BMC (NN) nuclease expression, 600 μl 20% L-(+)-arabinose (w/v) was added to the culture at a final concentration of 0.2% (v/v). The cultivation was continued until the culture reached an optical density at OD600 of 0.5. Subsequently 50 ml culture was transferred into one 50 ml conical tube and harvested by centrifugation at 4° C. for 5 min and 4000×g. Pelleted cells were resuspended in 50 ml ultrapure water (ice-cold) and centrifuged at 4° C. for 5 min and 4000×g.
This washing procedure was repeated twice. Washed cells were resuspended in 25 ml 10% (w/w) glycerin and re-centrifuged at 4° C. for 5 min and 4000×g. The pelleted cells were resuspended in 5 ml 10% (w/w) glycerin. After the final centrifugation step at 4° C. for 5 min and 4000×g, the cells were resuspended in 125 μl 10% (w/w) glycerin. Aliquots of 25 μl competent cells were stored at −80° C. until use. For the transformation procedure, aliquots of competent cells were thawed on ice and 50-100 ng plasmid DNA (CRISPR/gRNA-Ec) was added. Prepared cells were electroporated at 1800 V, 25 μF and 200 Ω in 1 mm gap size electroporation cuvettes, using the Bio-Rad Gene Pulser Xcell Electroporation System. Subsequently, 975 μL of NEB® 10-beta/Stable Outgrowth Medium was added immediately after the pulse to the transformed cells. Regeneration was done at 30° C. on a horizontal shaker at 250 rpm. Finally, 25-100 μl of the cell suspension was plated onto selective M9-Glucose agar plates supplemented with Kanamycin (25 μg/ml)/Ampicillin (100 μg/ml) (Example 4) or Kanamycin (25 μg/ml)/Ampicillin (100 μg/ml)/Nourseothrin (50 μg/ml) (Example 5). Growth of transformed E. coli cells on selective agar plates was screened for 48 h at 30° C.
As described above, each of the BMC01, BMC02, BMC03, BMC04, BMC05, BMC07, BMC08, BMC09, BMC10, BMC11, BMC12, BMC13, BMC14, or BMC15 nucleases was co-transformed into E. coli with a gRNA targeting the E. coli malQ gene to visualize a) the activity and b) the DNA targeting efficiency of the BMC nucleases.

B1: malQ gRNA (BMC stem-loop + 24 nt spacer) ; malQ protospacer (ssRNA ; dsDNA)
RNA: GAUUUCUACUAUUGUAGAUGUGGCGGUACGUUGAUGCAUCGCG
DNA 1: GTGGCGGTACGTTGATGCATCGCG
DNA 2: CGCGATGCATCAACGTACCGCCAC
B1 had an activity above 99.9 % colony reduction.

The values above are taken from patent US20250277199, “NOVEL CRISPR-CAS NUCLEASES FROM METAGENOMES” (Brain Biotech AG, published 2025).
